Consider 27 substances from patent US11505576B2, “Polypeptides based on a scaffold” (AFFIBODY AB, priority 2018, dated 2022).

The nature of data set [1]: Circular dichroism spectroscopy analysis (CD spectra, variable temperature measurement, refolding). The format is physicochemical. The method, then:
The respective Y variant was diluted to 0.5 mg/ml in PBS. A CD spectrum at 250-195 nm was obtained at 20° C. In addition, a variable temperature measurement (VTM) was performed to determine the melting temperature (Tm). In the VTM, absorbance was measured at 221 nm while the temperature was raised from 20° C. to 90° C. with a temperature gradient of 5° C./min. A new CD spectrum was obtained at 20° C. after the heating procedure, in order to study the refolding ability of the Y variants. The CD measurements were performed on a Jasco J-810 spectropolarimeter (Jasco Scandinavia AB) using a cell with an optical path length of 1 mm.
(§1) Produced Y variants were subjected to CD and SPR analyses according to the methods described in Example 1.
(§2) The Y variants were cloned, produced and characterized according to the general methods described in Example 1. Produced Y variants with point mutations and/or N-terminal or C-terminal extensions were subjected to CD and SPR analyses as described in Example 1.
(§3) Produced Y variants were subjected to CD and SPR analyses according to the methods described in Example 1. In addition, CD spectra of selected IL-6 binding variants were also recorded at 60, 70, 80 and 90° C.
(§4) The Y variants were cloned, produced and characterized according to the general methods described in Example 1. Produced Y variants with point mutations were subjected to CD and SPR analyses as described in Example 1. In addition, CD spectra of the IL-6 binding variants were also recorded at 60, 70, 80 and 90° C.

Data set [2] concerns the target T1, insulin (Homo sapiens, UniProt P01308).
T1 construct: purchased Roche 1376497
As to the kind of experiment: Kinetic analysis using surface plasmon resonance (Biacore T200), immobilized insulin. The data set is classed as binding. The method, then:
Kinetic constants (ka and kd) and affinities (KD) were determined for His6-tagged Y variants using a Biacore T200 instrument (GE Healthcare). Target proteins C4, IL-6 and insulin, respectively, were immobilized in separate flow cells on the carboxylated dextran layer of different CM5 chip surfaces (GE Healthcare). Immobilization was performed using amine coupling chemistry according to the manufacturer's protocol and PBS pH 7.4 supplemented with 0.1 Tween20 (PBST 0.1%) as running buffer. The ligand immobilization levels on the surfaces were 3280-8830 RU for C4, 495-1184 RU for IL-6, and 270-282 RU for insulin. One flow cell surface on each chip was activated and deactivated for use as blank during analyte injections. In the kinetic experiment, PBST 0.1% was used as running buffer at a flow rate of 30 μl/min. The analytes, i.e. Y variants, were each diluted in PBST 0.1 buffer at concentrations of 1000, 500, 100, 50 and 10 nM and injected for 5 min, followed by dissociation in running buffer for 3 min. After dissociation, the surfaces were regenerated with one injection of 30 μl 10 mM HCl. Kinetic constants were calculated from the sensorgrams using the Langmuir 1:1 model of Biacore T200 Evaluation software 2.0 (GE Healthcare).
as §1, §2, §3, §4

Where [3] appears, read: Table 2, Ylib001Naive.I selection, MGSSHHHHHHGSS-[Y#####]-ASGSVD, 0.5 mg/ml in PBS, 221 nm, 20-90° C.
Where [4] appears, read: Table 3, mutation study 1, MGSSHHHHHHGSS-[Y#####].
[5] abbreviates: Table 2, His6-tagged Y variant, MGSSHHHHHHGSS-[Y#####]-ASGSVD.
The mark [6] stands for this setting: Table 4, mutation study 2, MGSSHHHHHHGSS-[Y#####].

pKd: −log10 of the molar value. Entries after “also recorded” stand apart in the source; their conditions may differ.

T1 sequence (P01308 25-54 limits assumed): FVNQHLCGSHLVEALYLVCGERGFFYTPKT
T1 sequence (P01308 90-110 limits assumed): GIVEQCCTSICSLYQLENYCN

Regarding “Y00001: C4 binding Y variant from Ylib001Naive.I, SEQ ID NO:1 (LAEAKEAAIAELDSKGINEAIISKIERAESVEEVEYWKEEILAQLP; Engineered C4 binding Y variant)”, the Tm in data set [1] (setting [3]) is 61 °C; in data set [1] (setting [4]), 57 °C.

For “Y00004: C4 binding Y variant from Ylib001Naive.I, SEQ ID NO:4 (LAEAKEAANAELDSYGVDADLIKKIERAESVEEVEFWKEEILAHLP; Engineered C4 binding Y variant)”, the Tm in data set [1] (setting [3]) came out at 45 °C. As to “Y00005: C4 binding Y variant from Ylib001Naive.I, SEQ ID NO:5 (LAEAKEAAIAELDSAGVNEVQKSKIEQASSVEEVEFWKEEILAQLP; Engineered C4 binding Y variant)”, in data set [1] (setting [3]), the Tm stood at 60 °C. On to “Y00006: C4 binding Y variant from Ylib001Naive.I, SEQ ID NO:6 (LAEAKEAAIAELDSYGVVANLKKKIEIAKSVEQVEFWKEEILAQLP; Engineered C4 binding Y variant)”, for which, in data set [1] (setting [3]), the Tm was 49 °C.

Turning to “Y00032: insulin binding Y variant from Ylib001Naive.I, SEQ ID NO:90 (LAEAKEAAIAELDSKGVGAYQKSFIELAKSVEHVELLKEAILADLP; Engineered insulin binding Y variant)”, the pKd in data set [2] (setting [5]) is 7.30; in data set [2] (setting [4]) it was 7.20. For the same substance, the “α-helical content / ability to fold into an α-helical structure” value in data set [1] (CD spectrum at 20° C.) is “considerably higher α-helical content; also recorded: good ability to fold into an α-helical structure”. Further, the Tm in data set [1] (setting [3]) turned out to be 47 °C; in data set [1] (setting [4]), 49 °C; in data set [1] (setting [6]) it was 49 °C. Consider “Y00125: insulin binding Y variant, SEQ ID NO:106; differs from Y00032 by N in position 9 (LAEAKEAANAELDSKGVGAYQKSFIELAKSVEHVELLKEAILADLP; Engineered insulin binding Y variant)”, for which the pKd in data set [2] (setting [5]) is 6.96. Moreover, the Tm in data set [1] (setting [3]) stood at 35 °C. On to “Y00262: C4 binding Y variant, Y00001 with S23K, SEQ ID NO:18 (LAEAKEAAIAELDSKGINEAIIKKIERAESVEEVEYWKEEILAQLP; Engineered C4 binding Y variant)”, for which the Tm in data set [1] (setting [4]) and in data set [1] (setting [6]) was 61 °C throughout. In data set [2] (setting [4]), “Y00263: insulin binding Y variant, Y00032 with D13K, SEQ ID NO:110 (LAEAKEAAIAELKSKGVGAYQKSFIELAKSVEHVELLKEAILADLP; Engineered insulin binding Y variant)” showed a pKd of 6.89. The Tm in data set [1] (setting [4]) was found to be 43 °C. For “Y00264: insulin binding Y variant, Y00032 with K15Y, SEQ ID NO:111 (LAEAKEAAIAELDSYGVGAYQKSFIELAKSVEHVELLKEAILADLP; Engineered insulin binding Y variant)”, in that order: 7.19 and 48 °C. As to “Y00265: insulin binding Y variant, Y00032 with V17I, SEQ ID NO:112 (LAEAKEAAIAELDSKGIGAYQKSFIELAKSVEHVELLKEAILADLP; Engineered insulin binding Y variant)”, in data set [2] (setting [4]), the pKd is 6.92. Also, the Tm in data set [1] (setting [4]) was determined as 47 °C. In the case of “Y00266: insulin binding Y variant, Y00032 with G18S, SEQ ID NO:113 (LAEAKEAAIAELDSKGVSAYQKSFIELAKSVEHVELLKEAILADLP; Engineered insulin binding Y variant)”, in data set [2] (setting [4]), the pKd is 7.25. Further, in data set [1] (setting [4]), the Tm amounted to 50 °C.

“Y00267: insulin binding Y variant, Y00032 with A19E, SEQ ID NO:114 (LAEAKEAAIAELDSKGVGEYQKSFIELAKSVEHVELLKEAILADLP; Engineered insulin binding Y variant)”: in data set [2] (setting [4]), the pKd is 7.23. Also, the Tm in data set [1] (setting [4]) is 48 °C. For “Y00268: insulin binding Y variant, Y00032 with K22I, SEQ ID NO:115 (LAEAKEAAIAELDSKGVGAYQISFIELAKSVEHVELLKEAILADLP; Engineered insulin binding Y variant)”, in that order: 7.08 and 49 °C. On to “Y00269: insulin binding Y variant, Y00032 with S23K, SEQ ID NO:116 (LAEAKEAAIAELDSKGVGAYQKKFIELAKSVEHVELLKEAILADLP; Engineered insulin binding Y variant)”, for which the pKd in data set [2] (setting [4]) was 6.41. In addition, the Tm in data set [1] (setting [4]) came to 50 °C.

“Y00270: insulin binding Y variant, Y00032 with K22I + S23K, SEQ ID NO:117 (LAEAKEAAIAELDSKGVGAYQIKFIELAKSVEHVELLKEAILADLP; Engineered insulin binding Y variant)” showed a pKd in data set [2] (setting [4]) of 7.11. The Tm in data set [1] (setting [4]) and in data set [1] (setting [6]) was 52 °C in each case. “Y00271: insulin binding Y variant, Y00032 with E26Q, SEQ ID NO:118 (LAEAKEAAIAELDSKGVGAYQKSFIQLAKSVEHVELLKEAILADLP; Engineered insulin binding Y variant)” showed a pKd in data set [2] (setting [4]) of 7.33. The Tm in data set [1] (setting [4]) worked out at 49 °C. In data set [2] (setting [4]), “Y00273: insulin binding Y variant, Y00032 with E32Q, SEQ ID NO:120 (LAEAKEAAIAELDSKGVGAYQKSFIELAKSVQHVELLKEAILADLP; Engineered insulin binding Y variant)” had a pKd of 7.11. Regarding “Y00282: C4 binding Y variant, Y00262 with I17V, SEQ ID NO:19 (LAEAKEAAIAELDSKGVNEAIIKKIERAESVEEVEYWKEEILAQLP; Engineered C4 binding Y variant)”, the Tm in data set [1] (setting [6]) stood at 61 °C. Same read-out and setting: next, “Y00283: C4 binding Y variant, Y00262 with N18S, SEQ ID NO:20 (LAEAKEAAIAELDSKGISEAIIKKIERAESVEEVEYWKEEILAQLP; Engineered C4 binding Y variant)”: 61 °C. Same read-out and setting: the same measure for “Y00284: C4 binding Y variant, Y00262 with E19A, SEQ ID NO:21 (LAEAKEAAIAELDSKGINAAIIKKIERAESVEEVEYWKEEILAQLP; Engineered C4 binding Y variant)”: 64 °C; for “Y00285: C4 binding Y variant, Y00262 with I22K, SEQ ID NO:22 (LAEAKEAAIAELDSKGINEAIKKKIERAESVEEVEYWKEEILAQLP; Engineered C4 binding Y variant)”: 57 °C; for “Y00286: C4 binding Y variant, Y00262 with E26Q, SEQ ID NO:23 (LAEAKEAAIAELDSKGINEAIIKKIQRAESVEEVEYWKEEILAQLP; Engineered C4 binding Y variant)”: 62 °C. Consider “Y00287: C4 binding Y variant, Y00262 with E35Q, SEQ ID NO:24 (LAEAKEAAIAELDSKGINEAIIKKIERAESVEEVQYWKEEILAQLP; Engineered C4 binding Y variant)”, for which the Tm in data set [1] (setting [6]) is 62 °C. In the case of “Y00288: C4 binding Y variant, Y00262 with E39Q, SEQ ID NO:25 (LAEAKEAAIAELDSKGINEAIIKKIERAESVEEVEYWKQEILAQLP; Engineered C4 binding Y variant)”, the Tm in data set [1] (setting [6]) was found to be 66 °C. The same measure, in the same setting: next, “Y00289: C4 binding Y variant, Y00262 with E35Q + E39Q, SEQ ID NO:26 (LAEAKEAAIAELDSKGINEAIIKKIERAESVEEVQYWKQEILAQLP; Engineered C4 binding Y variant)”: 65 °C; “Y00290: C4 binding Y variant, Y00262 with E35Q + A43K, SEQ ID NO:27 (LAEAKEAAIAELDSKGINEAIIKKIERAESVEEVQYWKEEILKQLP; Engineered C4 binding Y variant)”: 69 °C; “Y00291: C4 binding Y variant, Y00262 with E35Q + E39Q + A43K, SEQ ID NO:28 (LAEAKEAAIAELDSKGINEAIIKKIERAESVEEVQYWKQEILKQLP; Engineered C4 binding Y variant)”: 66 °C.
